This is an account of results in patent US20230192839A1, “ANTIBODIES HAVING CONDITIONAL AFFINITY AND METHODS OF USE THEREOF” (PFIZER INC., priority 2017, published 2023).

This test has as its system human CD33. Kind of test: Biacore SPR binding kinetics of anti-CD33 scFv-Fc clones with or without 10 µM MTX. The settings on record: for koff, kinetics toward antigen with 0 µM MTX / kon, kinetics toward antigen with 0 µM MTX / Kd / koff, kinetics toward antigen with 10 µM MTX / kon, kinetics toward antigen with 10 µM MTX: 37° C., pH 7.4; for koff, kinetics toward antigen with 0 µM MTX / kon, kinetics toward antigen with 0 µM MTX / koff, kinetics toward antigen with 10 µM MTX / kon, kinetics toward antigen with 10 µM MTX: scFv-Fc; for Kd / koff, kinetics toward antigen with 10 µM MTX / kon, kinetics toward antigen with 10 µM MTX: 10 µM MTX; for Kd: koff/kon, or estimated from binding response / limit of detection for weak interactions, read-out: KD, kinetics toward antigen with 10 µM MTX. The text has this:
The first 4 rounds of panning used biotinylated CD33 antigen captured on streptavidin or neutravidin coated 96-well plates. […] 1536 clones were randomly chosen from the 4th and 5th round of panning against the CD33 antigen and their binding specificity determined by phage ELISA. Clones that specifically bound to CD33 were sequenced and all unique clones were subjected to a phage competition ELISA to assess their relative affinities to CD33 and sensitivity to MTX by measuring their binding strengths in the presence or absence of 10 µM (micromolar) MTX (i.e. in 0 or 10 µM MTX).
All binding kinetics analysis was performed on label-free Biacore surface plasmon biosensors (Biacore T200™ from GE Life Sciences) at 37° C. in 10 mM Hepes pH 7.4, 150 mM NaCl, 0.05% Tween-20 (HBST+), with or without 10 µM MTX. The Biacore data were processed in Biacore T200 Evaluation Software, and the data were double-referenced (Myszka, 1999, J Mol Recognit 12(5):279-284) and fit globally to a simple Langmuir with mass transport model to determine the equilibrium dissociation constant, KD, from the ratio of the kinetic rate constants (KD = koff/kon). In some cases the binding of antigen was very low (or not detectable) in the presence of 10 µM MTX and as a result kinetic rate constants could not be accurately determined. In these cases, a KD (or KD limit) was estimated based on the binding response at the highest analyte concentration tested or based on the typical limit of detection for a Biacore T200.

B1: P02_E08: anti-CD33 clone with conditional affinity; VH SEQ ID NO: 37, VL SEQ ID NO: 38; also as scFv in CAR (antibody, V domains shown)
VH: QVQLVESGGGLVQAGGSLRLSCAASRRSSRSWAMHWVRQAPGKGLEWVAVISYDGRLKYYADSVKGRFTISRDNAEYLVYLQMNSLRAEDTAVYYCAASDYDGGGLFDLWGQGTLVTVSS
VL: QSVLTQPPSASGTPGQRVTISCSGSNSNIGDNYVHWYQQLPGTAPKLLIYMNNQRPSGVPDRFSGSKSGTSASLAISGLRSEDEADYYCATWDDSLSGVVFGTGTKLTVL
modifications: Synthetic Antibody
notes: also as scFv in CAR
Usually Kd stands for a measure of binding affinity in units of concentration. B1: where the note is “CD33”, the “koff, kinetics toward antigen with 0 µM MTX” value (“koff … with 0 µM MTX” for short) came to 0.01 s⁻¹; the “kon, kinetics toward antigen with 0 µM MTX” value (shortened to “kon … with 0 µM MTX”) was determined as 47000 M⁻¹ s⁻¹; the Kd was more than 0.726 µM.

B2: P03_H04: anti-CD33 clone with conditional affinity; VH SEQ ID NO: 39, VL SEQ ID NO: 40; also as scFv in CAR (antibody, V domains shown)
VH: QVQLVESGGGLVQAGGSLRLSCAASRRSSRSWAMHWVRQAPGKGLEWVAVISYDGRLKYYADSVKGRFTISRDNAEYLVYLQMNSLRAEDTAVYYCAADPHDGYGGGPGFDYWGQGTLVTVSS
VL: QSVLTQPPSASGTPGQRVTISCSGSSSNIGSNYVYWYQQLPGTAPKLLIYRSNQRPSGVPDRFSGSKSGTSASLAISGLRSEDEADYYCAAWDDTLSAVVFGTGTKLTVL
modifications: Synthetic Antibody
notes: also as scFv in CAR
As for B2, under “CD33”, the “koff … with 0 µM MTX” value amounted to 0.026 s⁻¹; the “kon … with 0 µM MTX” value turned out to be 72000 M⁻¹ s⁻¹; the Kd was more than 15.7 µM.

B3: P04_C05: anti-CD33 clone with conditional affinity; VH SEQ ID NO: 41, VL SEQ ID NO: 42 (antibody, V domains shown)
VH: QVQLVESGGGLVQAGGSLRLSCAASRRSSRSWAMHWVRQAPGKGLEWVAVISYDGRLKYYADSVKGRFTISRDNAEYLVYLQMNSLRAEDTAVYYCAAGLPWTDYWGQGTLVTVSS
VL: QSVLTQPPSASGTPGQRVTISCSGSNSNIGSNYVSWYQQLPGTAPKLLIYSNNQRPSGVPDRFSGSKSGTSASLAISGLRSEDEADYYCAAWDDRLSVVFGTGTKLTVL
modifications: Synthetic Antibody
With B3, under “CD33”, the “koff … with 0 µM MTX” value was determined as 0.0021 s⁻¹; the “kon … with 0 µM MTX” value is 83000 M⁻¹ s⁻¹; the “koff, kinetics toward antigen with 10 µM MTX” value (shortened to “koff … with 10 µM MTX”) amounted to 0.013 s⁻¹; the “kon, kinetics toward antigen with 10 µM MTX” value (“kon … with 10 µM MTX” for short) amounted to 45000 M⁻¹ s⁻¹.

B4: P01_B02: anti-CD33 clone with increased affinity in presence of MTX; VH SEQ ID NO: 31, VL SEQ ID NO: 32 (antibody, V domains shown)
VH: QVQLVESGGGLVQAGGSLRLSCAASRRSSRSWAMHWVRQAPGKGLEWVAVISYDGRLKYYADSVKGRFTISRDNAEYLVYLQMNSLRAEDTAVYYCAAADWYSGGGDALDIWGQGTLVTVSS
VL: DIQMTQSPSSLSASVGDRVTITCRASQTIYNYLNWYQQKPGKAPKLLIYGASNLQSGVPSRFSGSGSGTDFTLTISSLQPEDFATYYCQQTYSSPTFGQGTKVEIK
modifications: Synthetic Antibody
On to B4, for which, where the note is “10 µM MTX vs 0 µM MTX”, the “affinity for CD33 in the presence of MTX as compared to absence (in words)” value was “increased affinity for CD33 in the presence of 10 µM MTX”. For the same molecule, where the note is “CD33”, the “times greater affinity for CD33 in the presence of 10 µM MTX as compared to in 0 µM MTX” value is “about 10 times”; the “koff … with 0 µM MTX” value worked out at 0.0026 s⁻¹; the “kon … with 0 µM MTX” value amounted to 140000 M⁻¹ s⁻¹; the “koff … with 10 µM MTX” value stood at 0.0006 s⁻¹. Also, the “kon … with 10 µM MTX” value (CD33) came out at 390000 M⁻¹ s⁻¹.

B5: P02_C02: anti-CD33 reference clone, less than 2-fold MTX effect; VH SEQ ID NO: 11, VL SEQ ID NO: 12 (antibody, V domains shown)
VH: QVQLVESGGGLVQAGGSLRLSCAASRRSSRSWAMHWVRQAPGKGLEWVAVISYDGRLKYYADSVKGRFTISRDNAEYLVYLQMNSLRAEDTAVYYCAAEGGMGLDPWGQGTLVTVSS
VL: DIQMTQSPSSLSASVGDRVTITCRASQTISSYLNWYQQKPGKAPKLLIYAASNLHSGVPSRFSGSGSGTDFTLTISSLQPEDFATYYCQQSYSSGTFGQGTKVEIK
modifications: Synthetic Antibody
For B5, where the note is “CD33”, the “koff … with 0 µM MTX” value came out at 0.02 s⁻¹; the “kon … with 0 µM MTX” value was determined as 92000 M⁻¹ s⁻¹; the “koff … with 10 µM MTX” value was 0.025 s⁻¹; the “kon … with 10 µM MTX” value came out at 110000 M⁻¹ s⁻¹.

B6: P01_A09: anti-CD33 clone with conditional affinity; VH SEQ ID NO: 3, VL SEQ ID NO: 4; tested as scFv-Fc (antibody, V domains shown)
VH: QVQLVESGGGLVQAGGSLRLSCAASRRSSRSWAMHWVRQAPGKGLEWVAVISYDGRLKYYADSVKGRFTISRDNAEYLVYLQMNSLRAEDTAVYYCAAERPTSDGSTGGMDVWGQGTLVTVSS
VL: DIQMTQSPSSLSASVGDRVTITCRASQSISSYLNWYQQKPGKAPKLLIYGASTLQSGVPSRFSGSGSGTDFTLTISSLQPEDFATYYCQQSYSSGTFGQGTKVEIK
With B6, where the note is “CD33”, the “koff … with 0 µM MTX” value is 0.017 s⁻¹ and the “kon … with 0 µM MTX” value is 110000 M⁻¹ s⁻¹.

B7: P16_E06: anti-CD33 clone with conditional affinity; VH SEQ ID NO: 29, VL SEQ ID NO: 30 (antibody, V domains shown)
VH: QVQLVESGGGLVQAGGSLRLSCAASRRSSRSWAMHWVRQAPGKGLEWVAVISYDGRLKYYADSVKGRFTISRDNAEYLVYLQMNSLRAEDTAVYYCAAEGGDYPGTSDGGLDIWGQGTLVTVSS
VL: DIQMTQSPSSLSASVGDRVTITCRASQSISNYLNWYQQKPGKAPKLLIYGASSLQSGVPSRFSGSGSGTDFTLTISSLQPEDFATYYCQQSYSAGTFGQGTKVEIK
modifications: Synthetic Antibody
Turning to B7, where the note is “CD33”, the “koff … with 0 µM MTX” value worked out at 0.011 s⁻¹; the “kon … with 0 µM MTX” value worked out at 120000 M⁻¹ s⁻¹; the “koff … with 10 µM MTX” value is 0.087 s⁻¹; the “kon … with 10 µM MTX” value was 75000 M⁻¹ s⁻¹.

B8: P08_C08: anti-CD33 clone with conditional affinity; VH SEQ ID NO: 27, VL SEQ ID NO: 28 (antibody, V domains shown)
VH: QVQLVESGGGLVQAGGSLRLSCAASRRSSRSWAMHWVRQAPGKGLEWVAVISYDGRLKYYADSVKGRFTISRDNAEYLVYLQMNSLRAEDTAVYYCAAEGSGSTDGSGAIDVWGQGTLVTVSS
VL: DIQMTQSPSSLSASVGDRVTITCRASQSIGSYLNWYQQKPGKAPKLLIYAASSLQSGVPSRFSGSGSGTDFTLTISSLQPEDFATYYCQQSYSSGSFGQGTKVEIK
modifications: Synthetic Antibody
In the case of B8, under “CD33”, the “koff … with 0 µM MTX” value worked out at 0.0045 s⁻¹; the “kon … with 0 µM MTX” value was 63000 M⁻¹ s⁻¹; the “koff … with 10 µM MTX” value amounted to 0.051 s⁻¹; the “kon … with 10 µM MTX” value was 94000 M⁻¹ s⁻¹.

B9: P04_C09: anti-CD33 clone with conditional affinity; VH SEQ ID NO: 23, VL SEQ ID NO: 24 (antibody, V domains shown)
VH: QVQLVESGGGLVQAGGSLRLSCAASRRSSRSWAMHWVRQAPGKGLEWVAVISYDGRLKYYADSVKGRFTISRDNAEYLVYLQMNSLRAEDTAVYYCAAEANESDSGGIDVWGQGTLVTVSS
VL: DIQMTQSPSSLSASVGDRVTITCRASQTIGGYLNWYQQKPGKAPKLLIYAASSLQSGVPSRFSGSGSGTDFTLTISSLQPEDFATYYCQQGYSSGAFGQGTKVEIK
modifications: Synthetic Antibody
As to B9, where the note is “CD33”, the “koff … with 0 µM MTX” value was 0.0018 s⁻¹; the “kon … with 0 µM MTX” value stood at 160000 M⁻¹ s⁻¹; the “koff … with 10 µM MTX” value was 0.0089 s⁻¹; the “kon … with 10 µM MTX” value was 44000 M⁻¹ s⁻¹.

B10: P02_A10: anti-CD33 clone with conditional affinity; VH SEQ ID NO: 9, VL SEQ ID NO: 10 (antibody, V domains shown)
VH: QVQLVESGGGLVQAGGSLRLSCAASRRSSRSWAMHWVRQAPGKGLEWVAVISYDGRLKYYADSVKGRFTISRDNAEYLVYLQMNSLRAEDTAVYYCAAESEWDTGGFDVWGQGTLVTVSS
VL: DIQMTQSPSSLSASVGDRVTITCRASQSIGSYLNWYQQKPGKAPKLLIYSSSNLQSGVPSRFSGSGSGTDFTLTISSLQPEDFATYYCQQSYTSGTFGQGTKVEIK
modifications: Synthetic Antibody
In the case of B10, under “CD33”, the “koff … with 0 µM MTX” value came out at 0.044 s⁻¹; the “kon … with 0 µM MTX” value worked out at 84000 M⁻¹ s⁻¹; the equilibrium dissociation constant (Kd) is more than 9.02 µM.
